According to publication PMC6442593:
Several values for one entry are separate records, joined by “and”; a condition that tells them apart may be missing. Equal values may be shown once.

Target: uPAR-tagged soluble human GPIHBP1-S107C (human) (UniProt Q8IV16)
Test: density gradient ultracentrifugation

“uPAR-tagged soluble human GPIHBP1-S107C (from UniProt Q8IV16 21-151) (domain or fragment)” was tested. Which stoichiometry N did it give?
Its stoichiometry N is 2 and 3.
